# Results taken from the nanobody polyreactivity screen of Harvey et al. (2022).
# Assay: yeast display, Sf9 membrane polyspecificity reagent, FACS + sequencing; frameworks hold sequencing errors
# How it was run: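 Using colony PCR, genes from sorted yeast display clones were amplified, then sequenced on MiSeq at 2 × 250 and filtered by CDR length. The clones had been stained with 10% biotinylated, detergent-solubilized Sf9 membrane reagent for 1 hour at 4 °C and sorted by FACS into low and high (top ~1%) gates on anti-HA and streptavidin fluorescence. Polyreactivity labels come from the gate of origin.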
row,Sequence,polyreactivity (PSR sort gate)
1,QVQLVESGGGLVQAGGSLRLSCAASGIIFWRYAMGWYRQAPGKERELVASISWSGGSTSYADSVKGRFTISRDNAKNTVYLQMNSLKPEDTSVYYCAAVYYYRRRYYYWGQGTQVTVSS,high polyreactivity
2,QVQLVESGGGLVQAGGSLRFSCAASGRTFVPYAMGWYRQAPGKERELVARIDSSGGSTYYADSVKGRFTISRDNAKNTVYLQMNSLKPEDTAVYYCAAVFYYWSLRSYYWGQGTQVTVSS,high polyreactivity
3,QVQLVESGGGLVQAGGSLRLSCADSGRIFWTNAMVWYRQAPGKERELVAAISYNGASTFYADSVKGRFTISRDNAKNTVSLQMNSLKPEDTAVYYCNAYSSRYRYNYWGQGTQVTVSS,high polyreactivity
4,QVQLVESGGGLVQAGGSLRLSCAASGFTFKNYAMGWYRQAPGKEREFVATISSRGGSTYYADSVKGRFTISRDNAKNTVYLQMNSLKPEDTAVYYCATSRYLSRSSEYGYWGQGTQVTVSS,high polyreactivity
5,QVQLVESGGGLVQAGGSLRLSCAASGFTFRRYVMGWYRQAPGKERELVAAISSGGRTNYADSVKGRFTISRYNAKNTVYLQMNSLKPEDTAVYYCGYLDRYHHLRYWGQGTQVTVSS,high polyreactivity
6,QVHLVESGGGLVQAGGSLRLSCAASGRIFRPYAMGWYRQAPGKERELVAGLTSSGGSTYYADSVKGRFTISRDNAKNTVYLHMNSRKPEDTALYYCAAGPDYGWRRYDYWGQGTQVTVSS,low polyreactivity
7,LVQLVQSGGGLVQAGGTLRISSAASGSTLDWYAMGWYRQAPGKERELVAAITSGGSTYYADSVKGRFTISRDNAKNTVYLQMNSLKPEDTAVYYCAAEYYTWYYDIYDYWGQGTQVTVSS,high polyreactivity
8,QVQLVESGGGLVQAGGSLRLSCAASGLTFYKNAMGWYRQAPGKEKELVAAISDSGGSTYYADSVKGRFTISRDNAKNTVYLQMNSLKPEDTAVCYCNARRRVYYKGFDYWGQGTQVTVSS,high polyreactivity
9,QVQLVESGGGLVQAGGSLRLSCAASGSIFSRYTMGWYRQAPGKERELVAVISTSGGSTYYADSVKGRFTISRDNAKNTVYLQMNSLKPEDTAVYYCNARPKRGSLGGPGYGYWGQGTQVTVSS,high polyreactivity
10,QVQLVESGGGLVQAGGSLRLSCAASGLTFVYYAMGWYRQAPGNERELVAAISRRGGSTNYADSVKGRFTISRDNAKNTVYLQMNSLKPEDTAVYYCAATSRYFQPPGYGGGRIGYGYWGQGTQVTVSS,high polyreactivity
11,QVQLVESGGGLVQEGGSLRLSCAASGGTFAYAMGWYRQAPGKERELVAAITWRGGDTYADSVKGRFTISRDNAKNTVYLQMNSLKPEDTAVYYCAAEFRDVSSNGYDYWGQGTQVTVSS,low polyreactivity
12,QVQLVESGGGLVQAGGSLRLSCAASGSTRFWKDMGWYRQAPWKERELVAVISFSGVSTYYADSVKGRFTISRDNAKNTVYIQMNRLKPEDTAVYYCAIEDGYSQLKTTFDEPGYGSWGQGTQVNVSS,low polyreactivity
13,QVQHVESRGGLVQAGGSLRLSCAASGSTFCRYAMGWYRKAPGKEREFVARITYSSGRTYYADSVKGRFTISRDNAKNTVYLQMNSLKPDDTAVYYCAAGDYTRGPCGDYWGQGTQVTVSS,high polyreactivity
14,QVQLVESGGGLVQAGGSLRLSCAASGSTFGWNTMGWYRQAPGKERELVAAISWSGDRTYYADSVKGRFTISRDNAKNTVYLQMNSLKPDDTAVYYCARQRYYGYYYWGQGTQVTVSS,high polyreactivity
15,QVQLVESGGGLVQAGGSLRLSCAASGRIFNQYCMGWYRQAPGKERELVAAIRSGDSTNYADSVKGRFTISRDNAKNTVYLQMNSLKPEDTAVYYCARDRPGDYAGYDYWGQGTQVTVSS,low polyreactivity
16,QVQLVESGGGLVQSGGSLRLSCAASGIIFLDYVMVWYRQAPGKERELVAAISLSAGSTNYADSVKGRFTISRDNAKNTVYLQMNSLKPEDTAVYYCAAEVLAVRDDGYRSDEMDYWGQGTQVTVSS,low polyreactivity
17,QVQLVESGGGLVQPGGSLRLSCAASGFTFRGYDMGWYRQAPGTERELVAGITWGDDSTYYADSVKGRFTISRDNAKNTVYLQMNSLKPEDTAVYYCATYFRVYYSQYDYWGEGTQVTVSS,high polyreactivity
18,QVQLVESGGGLVQAGGSLRLSCAASGRIFPPYGMGWYRQAPGKERELVAGITSDGSTNYADSVKGRFTISRDNAKNTVYLQMNSLKPEDTAVYFCAADQGSWYYYPVYYYGGDYWGQGTQVTVSS,low polyreactivity
19,QVQLVESGGGLVQAGGSLSLSCAASGLIFDVYAMGWYRKAPGKERELVAVISRGVSTNYPDSVKGRFTISRDNAKNTVYLQMNSLKPEDTAVYYCATDSRGYDYWGQCTQVTVSS,high polyreactivity
20,QVQLVESGGGLVQAGGSLRLSCAASGSIFVKNVMGWYRQAPGKERELVAAISRGSSTYYADSVKGRFTISRDNAKNTVYLQMNSLKPEDTAVYYCAARGPYRLRNDEAFDYWGQGTQVTVSS,low polyreactivity
21,QVQLVESGGGLVHAGGSLRLSCAASGRIFLYYVMGWYRQAPGKERELVAAITSGGSTYYADSVKGRFTISRDNAKNTVYLQMNSLKPEDTAVYYCNKVSYYRNEYWGQGTQVTVSS,high polyreactivity
22,QVQLVESGGGLVQAGGRLRLSCSASGSIFVTYDMGWYRQAPGKERELVAGISGSGSTNYADSVKGRFTISRDNAKNTVYLQMNSLKPEDTAVYYCAAEYEYLWSQYLTDYGYDYWGQGTQVTVSS,low polyreactivity

row,Sequence,polyreactivity (PSR sort gate)
1,QVQLVESGGGLVQAGGSLRFSCAASGRTIWTYVMGWYRQAPGKERELVAAISRSGSSTYYADSVKGRFTISRDNAKNTVYLQMNSLKPEDTAVYYCNKVDGTTLDDHYMDYWGQGTQVTVAS,low polyreactivity
2,QVQVVESGGGLVQAGGSLRLSCAASGSTFVLNAMGWYRQAPGKERELVAAITYGGSTYYADSVKGRFTISRDNAKNTVYLQMNSLKPEDTAVYYCAVTYNGDSSWPGDYWGQGTQVTVSS,low polyreactivity
3,QVQLVESGGGLVQAGGSLRLSCAASGLIFRHYAMGWYRQSPGKEREFVAAITWSGGSTYYADSVKGRFTISRDNAKNTVYLQMNSLKPEDTAVYYCAAEGPGYGPTGDFYWYTYYYWGQGSQVTVSS,low polyreactivity
4,QVQLVESGGGLVQAGGSLRLSCAASGRTFRTYAMGWYRQAPGKERELVAAISRTGRTNYADSVKGRFTISRDNAKNTVYLQMNSLKPEDTAVYYCAADRVGWSGYRGDYWGQGTQVTVSS,high polyreactivity
5,QVQLVESGGGLVQAGGSLRLSCAASGRIFAENAMGWYRQAPGKERELVAAITDGGGSTYYADSVKGRFTISRDNAKNTVYLQMNSLKPEDTAVYYCNAYRYHLGVDFDYWGQGTQVTVSS,low polyreactivity
6,QVQLVESGGGIVQAGGSLRLSCAASGRIFAYYAMGWYRQAPGKERELVAAISTSGGSTYYADSVKGRFTISRDNAKNTVYLQMNSLKPEDTAVYYCAAEFGGGRSTNFDYWGQGTQVTVSS,low polyreactivity
7,QVQLVESGGGLVQAGGSLRLICAASGRTFRSNDMGWYRQAPGKERELVAANSLGTGTTYYADSVKGRFTISRDNAKNTVYLQMNSLKPEDTAVYYCHTDYRPIDTEYTSGYDYWGQGTQVTVSS,low polyreactivity
8,QFQLVESGGGLVQAGGSLRLSCAASGFTFSGYAMGWYRQAPGKERELVAAINWRGDSTYYADSVKGRFTISRDNAKNTVYLHMNSLKPEDTAVYYCYVVLGPQRYSTDYGYWGQGTQVTVSS,high polyreactivity
9,QVQLVESGGGLVQAGGSLRLSCAASGITFYRNAMGSYRQAPGKERELVADIDVGDGTYYADSVKGRFTISRDNCKNTVYLQMNSLKPEDTAVYYCNKTFLFLEYDSWGQGTQVTVSS,low polyreactivity
10,QVKLVESGGGLVQAGGSLRLSCAASGGTFGSNAMGWYRQAPGKERHLVAAISTTGGTTYYADSVKGRFTISRDNAKNTVYLQMNSLKPEDTAVYYCAKDGYVYGDWYTYAYDYWGQGTQVTVSS,low polyreactivity
11,QVQLVESGGGLVQAGGSLRLSCAASGITFTRNAMGWYRQAPGKERELVAVITSSGRTKYADSVKGRFTISRDNAKNTVYLQMNSLKPEDTAVYYCAKVLFGTVPYGYWGHGTQVTVSS,high polyreactivity
12,QVQLVESGGCLVQAGGSLRLSCAASGSIFPWYAMGWYRQAPGKERELVADISYSGSGTYYADSVKGRFAISRDNGKNNVYLQMTSLKPEDSAVYYCNAQRAEWYPVGRYEYWGQGSQVTVSS,low polyreactivity
13,QVQLVESGGGLVQAGGSLRLSCAASGSIFSYYAMGWSRQAPGKERELVATISWSGGSTYYADSVKGRFTISRDNAKNTVYLQMNSLKPEDTAVYYCAARIWTGRGRKLGYGYDYWGQGTQVTVSS,low polyreactivity
14,QVQLVESGGGLVQAGGSLRLSCAASGRTFQVNSMGWYRQAPGKERELVAALTKRGGSTSYADSVKGRFTFSRDNANNTFYLQMNSLIPEDTAVYYCNVDYWGQGTQVTLSS,low polyreactivity
15,QVQLVESGGGLVKAGGSLRLSCAASGSTFERYAMGWYRQAPGKERELVAAINWSGGGTYYADSVKGRFTISRDNAKNTVYFQMNSLKPEDTAVYYCAADSGTVVFSLWWYEYYYWGQGTQVTVSS,low polyreactivity
16,QVQLVDSGGGLVQAGGSLRLSCAASGYILGRYAMGWYRQAPGKERELVAAISSSGGSTYYADSVKGRFTISRDNGKNSVYLQINSLKPEDTAFYYWNVPRFYGSYNYWGQGTQVTVSS,high polyreactivity
17,QVQLVESGGGLVQAGGSLRLSCAASGSTFQYKAMGWYRQAPGKERELVAAISRRGGSTYYADSVKRRFTISRDNAKNTVYFQMNSLKPADTAVYYCAKEKGYWSGYDYWGQGTQVTVSS,high polyreactivity
18,QDQLVESGVGLVQAGVSLRLSCAASGSIFESYAMGWSSQAPGKESELVAAIDYDDGSTYYADSVKGRFTISRDNAKNTVYLQMNSLKPEDTAVYYCAAKPTTYYGISDYWGQGTQVTVAS,high polyreactivity
19,QVQLVESGGRLVQAGGSLRLSCAASGRIFSRNAMGWYRQAPGKERELVAGISARGGRTYYADSVKGRFTISRDNAKNTVYLQMNSLKPEDTAVYYCAASFSAIRGGVRVTIDYYWGQGTQVTVSS,high polyreactivity
20,QVQLVESGGRLVQAGGSLRLSCAASGRIFNRYAMGWYRQAPGKERELVAAITRGGSTYYADSVKGRFTMSRDNAKITVYLQMNSLKPEDSAVYYCAGRVGYPYYYWGQGTQVTVSS,high polyreactivity
21,QVQLVESGGGLLQAGGSLRLSCAASGSIFSRYAMGWYRQAPGKERELVAAISKSGTRTYYADSVKGRFTISRDNAKNTVYLQMNSLKPEDTAVYYCNADSEISWYYPYEYWGQGTQVTVSS,high polyreactivity
